Source: the supplement of paper PMC12458215
± gives the uncertainty stated by the source.

System: HEK293T
Test: plasma membrane surface immunostaining intensity (anti-HA, deep receptor scanning) (arbitrary fluorescence units); higher = higher plasma membrane expression

Sequence | plasma membrane surface immunostaining intensity (GPCR class: A) | plasma membrane surface immunostaining intensity (GPCR class: A (Olfactory)) | other results
MEEGGDFDNYYGADNQSECEYTDWKSSGALIPAIYMLVFLLGTTGNGLVLWTVFRSSREKRRSADIFIASLAVADLTFVVTLPLWATYTYRDYDWPFGTFFCKLSSYLIFVNMYASVFCLTGLSFDRYLAIVRPVANARLRLRVSGAVATAVLWVLAALLAMPVMVLRTTGDLENTTKVQCYMDYSMVATVSSEWAWEVGLGVSSTTVGFVVPFTIMLTCYFFIAQTIAGHFRKERIEGLRKRRRLLSIIVVLVVTFALCWMPYHLVKTLYMLGSLLHWPCDFDLFLMNIFPYCTCISYVNSCLNPFLYAFFDPRFRQACTSMLCCGQSRCAGTSHSSSGEKSASYSSGHSQGPGPNMGKGGEQMHEKSIPYSQETLVVD [APLNR] | 6400 ± 84 |  | 
MNPPSGPRVPPSPTQEPSCMATPAPPSWWDSSQSSISSLGRLPSISPTAPGTWAAAWVPLPTVDVPDHAHYTLGTVILLVGLTGMLGNLTVIYTFCRSRSLRTPANMFIINLAVSDFLMSFTQAPVFFTSSLYKQWLFGETGCEFYAFCGALFGISSMITLTAIALDRYLVITRPLATFGVASKRRAAFVLLGVWLYALAWSLPPFFGWSAYVPEGLLTSCSWDYMSFTPAVRAYTMLLCCFVFFLPLLIIIYCYIFIFRAIRETGRALQTFGACKGNGESLWQRQRLQSECKMAKIMLLVILLFVLSWAPYSAVALVAFAGYAHVLTPYMSSVPAVIAKASAIHNPIIYAITHPKYRVAIAQHLPCLGVLLGVSRRHSRPYPSYRSTHRSTLTSHTSNLSWISIRRRQESLGSESEVGWTHMEAAAVWGAAQQANGRSLYGQGLEDLEAKAPPRPQGHEAETPGKTKGLIPSQDPRM [OPN4] | 519 ± 36 |  | 
MDGSNVTSFVVEEPTNISTGRNASVGNAHRQIPIVHWVIMSISPVGFVENGILLWFLCFRMRRNPFTVYITHLSIADISLLFCIFILSIDYALDYELSSGHYYTIVTLSVTFLFGYNTGLYLLTAISVERCLSVLYPIWYRCHRPKYQSALVCALLWALSCLVTTMEYVMCIDREEESHSRNDCRAVIIFIAILSFLVFTPLMLVSSTILVVKIRKNTWASHSSKLYIVIMVTIIIFLIFAMPMRLLYLLYYEYWSTFGNLHHISLLFSTINSSANPFIYFFVGSSKKKRFKESLKVVLTRAFKDEMQPRRQKDNCNTVTVETVV [MAS1] | 782 ± 65 |  | 
MAVGRNNTIVTKFILLGLSDHPQMKIFLFMLFLGLYLLTLAWNLSLIALIKMDSHLHMPMYFFLSNLSFLDICYVSSTAPKMLSDIITEQKTISFVGCATQYFVFCGMGLTECFLLAAMAYDRYAAICNPLLYTVLISHTLCLKMVVGAYVGGFLSSFIETYSVYQHDFCGPYMINHFFCDLPPVLALSCSDTFTSEVVTFIVSVVVGIVSVLVVLISYGYIVAAVVKISSATGRTKAFSTCASHLTAVTLFYGSGFFMYMRPSSSYSLNRDKVVSIFYALVIPVVNPIIYSFRNKEIKNAMRKAMERDPGISHGGPFIFMTLG [OR5A2] |  | 267 ± 110 | 
MPIMGSSVYITVELAIAVLAILGNVLVCWAVWLNSNLQNVTNYFVVSLAAADIAVGVLAIPFAITISTGFCAACHGCLFIACFVLVLTQSSIFSLLAIAIDRYIAIRIPLRYNGLVTGTRAKGIIAICWVLSFAIGLTPMLGWNNCGQPKEGKNHSQGCGEGQVACLFEDVVPMNYMVYFNFFACVLVPLLLMLGVYLRIFLAARRQLKQMESQPLPGERARSTLQKEVHAAKSLAIIVGLFALCWLPLHIINCFTFFCPDCSHAPLWLMYLAIVLSHTNSVVNPFIYAYRIREFRQTFRKIIRSHVLRQQEPFKAAGTSARVLAAHGSDGEQVSLRLNGHPPGVWANGSAPHPERRPNGYALGLVSGGSAQESQGNTGLPDVELLSHELKGVCPEPPGLDDPLAQDGAGVS [ADORA2A] | 5780 ± 120 |  | 
MGHNGSWISPNASEPHNASGAEAAGVNRSALGEFGEAQLYRQFTTTVQVVIFIGSLLGNFMVLWSTCRTTVFKSVTNRFIKNLACSGICASLVCVPFDIILSTSPHCCWWIYTMLFCKVVKFLHKVFCSVTILSFPAIALDRYYSVLYPLERKISDAKSRELVMYIWAHAVVASVPVFAVTNVADIYATSTCTEVWSNSLGHLVYVLVYNITTVIVPVVVVFLFLILIRRALSASQKKKVIIAALRTPQNTISIPYASQREAELHATLLSMVMVFILCSVPYATLVVYQTVLNVPDTSVFLLLTAVWLPKVSLLANPVLFLTVNKSVRKCLIGTLVQLHHRYSRRNVVSTGSGMAEASLEPSIRSGSQLLEMFHIGQQQIFKPTEDEEESEAKYIGSADFQAKEIFSTCLEGEQGPQFAPSAPPLSTVDSVSQVAPAAPVEPETFPDKYSLQFGFGPFELPPQWLSETRNSKKRLLPPLGNTPEELIQTKVPKVGRVERKMSRNNKVSIFPKVDS [GPR176] | 6400 ± 100 |  | 
MTSTCTNSTRESNSSHTCMPLSKMPISLAHGIIRSTVLVIFLAASFVGNIVLALVLQRKPQLLQVTNRFIFNLLVTDLLQISLVAPWVVATSVPLFWPLNSHFCTALVSLTHLFAFASVNTIVVVSVDRYLSIIHPLSYPSKMTQRRGYLLLYGTWIVAILQSTPPLYGWGQAAFDERNALCSMIWGASPSYTILSVVSFIVIPLIVMIACYSVVFCAARRQHALLYNVKRHSLEVRVKDCVENEDEEGAEKKEEFQDESEFRRQHEGEVKAKEGRMEAKDGSLKAKEGSTGTSESSVEARGSEEVRESSTVASDGSMEGKEGSTKVEENSMKADKGRTEVNQCSIDLGEDDMEFGEDDINFSEDDVEAVNIPESLPPSRRNSNSNPPLPRCYQCKAAKVIFIIIFSYVLSLGPYCFLAVLAVWVDVETQVPQWVITIIIWLFFLQCCIHPYVYGYMHKTIKKEIQDMLKKFFCKEKPPKEDSHPDLPGTEGGTEGKIVPSYDSATFP [GPR101] | 3010 ± 110 |  | 
MCPMLLKNGYNGNATPVTTTAPWASLGLSAKTCNNVSFEESRIVLVVVYSAVCTLGVPANCLTAWLALLQVLQGNVLAVYLLCLALCELLYTGTLPLWVIYIRNQHRWTLGLLACKVTAYIFFCNIYVSILFLCCISCDRFVAVVYALESRGRRRRRTAILISACIFILVGIVHYPVFQTEDKETCFDMLQMDSRIAGYYYARFTVGFAIPLSIIAFTNHRIFRSIKQSMGLSAAQKAKVKHSAIAVVVIFLVCFAPYHLVLLVKAAAFSYYRGDRNAMCGLEERLYTASVVFLCLSTVNGVADPIIYVLATDHSRQEVSRIHKGWKEWSMKTDVTRLTHSRDTEELQSPVALADHYTFSRPVHPPGSPCPAKRLIEESC [GPR132] | 372 ± 74 |  | 
MENVTTMNEFLLLGLTGVQELQPFFFGIFLIIYLINLIGNGSILVMVVLEPQLHSPMYFFLGNLSCLDISYSSVTLPKLLVNLVCSRRAISFLGCITQLHFFHFLGSTEAILLAIMAFDRFVAICNPLRYTVIMNPQVCILLAAAAWLISFFYALMHSVMTAHLSFCGSQKLNHFFYDVKPLLELACSDTLLNQWLLSIVTGSISMGAFFLTLLSCFYVIGFLLFKNRSCRILHKALSTCASHFMVVCLFYGPVGFTYIRPASATSMIQDRIMAIMYSAVTPVLNPLIYTLRNKEVMMALKKIFGRKLFKDWQQHH [OR12D3] |  | 148 ± 34 | 
MKMKSQATMICCLVFFLSTECSHYRSKIHLKAGDKLQSPEGKPKTGRIQEKCEGPCISSSNCSQPCAKDFHGEIGFTCNQKKWQKSAETCTSLSVEKLFKDSTGASRLSVAAPSIPLHILDFRAPETIESVAQGIRKNCPFDYACITDMVKSSETTSGNIAFIVELLKNISTDLSDNVTREKMKSYSEVANHILDTAAISNWAFIPNKNASSDLLQSVNLFARQLHIHNNSENIVNELFIQTKGFHINHNTSEKSLNFSMSMNNTTEDILGMVQIPRQELRKLWPNASQAISIAFPTLGAILREAHLQNVSLPRQVNGLVLSVVLPERLQEIILTFEKINKTRNARAQCVGWHSKKRRWDEKACQMMLDIRNEVKCRCNYTSVVMSFSILMSSKSMTDKVLDYITCIGLSVSILSLVLCLIIEATVWSRVVVTEISYMRHVCIVNIAVSLLTANVWFIIGSHFNIKAQDYNMCVAVTFFSHFFYLSLFFWMLFKALLIIYGILVIFRRMMKSRMMVIGFAIGYGCPLIIAVTTVAITEPEKGYMRPEACWLNWDNTKALLAFAIPAFVIVAVNLIVVLVVAVNTQRPSIGSSKSQDVVIIMRISKNVAILTPLLGLTWGFGIATLIEGTSLTFHIIFALLNAFQGFFILLFGTIMDHKIRDALRMRMSSLKGKSRAAENASLGPTNGSKLMNRQG [ADGRF4] |  |  | plasma membrane surface immunostaining intensity (GPCR class: B): 386 ± 78
MQRANHSTVTQFILVGFSVFPHLQLMLFLLFLLMYLFTLLGNLLIMATVWSERSLHTPMYLFLCALSVSEILYTVAIIPRMLADLLSTQRSIAFLACASQMFFSFSFGFTHSFLLTVMGYDRYVAICHPLRYNVLMSPRGCACLVGCSWAGGLVMGMVVTSAIFHLAFCGHKEIHHFACHVPPLLKLACGDDVLVVAKGVGLVCITALLGCFLLILLSYAFIVAAILKIPSAEGRNKAFSTCASHLTVVVVHYGFASVIYLKPKSPQSLEGDTLMGITYTVLTPFLSPIIFSLRNKELKVAMKKTFFSKLYPEKNVMM [OR10H1] |  | 121 ± 17 | 
MGNWTAAVTEFVLLGFSLSREVELLLLVLLLPTFLLTLLGNLLIISTVLSCSRLHTPMYFFLCNLSILDILFTSVISPKVLANLGSRDKTISFAGCITQCYFYFFLGTVEFLLLTVMSYDRYATICCPLRYTTIMRPSVCIGTVVFSWVGGFLSVLFPTILISQLPFCGSNIINHFFCDSGPLLALACADTTAIELMDFMLSSMVILCCIVLVAYSYTYIILTIVRIPSASGRKKAFNTCASHLTIVIISSGITVFIYVTPSQKEYLEINKIPLVLSSVVTPFLNPFIYTLRNDTVQGVLRDVWVRVRGVFEKRMRAVLRSRLSSNKDHQGRACSSPPCVYSVKLQC [OR6J1] |  | 279 ± 110 | 
MLMNYSSATEFYLLGFPGSEELHHILFAIFFFFYLVTLMGNTVIIMIVCVDKRLQSPMYFFLGHLSALEILVTTIIVPVMLWGLLLPGMQTIYLSACVVQLFLYLAVGTTEFALLGAMAVDRYVAVCNPLRYNIIMNRHTCNFVVLVSWVFGFLFQIWPVYVMFQLTYCKSNVVNNFFCDRGQLLKLSCNNTLFTEFILFLMAVFVLFGSLIPTIVSNAYIISTILKIPSSSGRRKSFSTCASHFTCVVIGYGSCLFLYVKPKQTQAADYNWVVSLMVSVVTPFLNPFIFTLRNDKVIEALRDGVKRCCQLFRN [OR9A4] |  | 185 ± 75 | 
MTPNSTGEVPSPIPKGALGLSLALASLIITANLLLALGIAWDRRLRSPPAGCFFLSLLLAGLLTGLALPTLPGLWNQSRRGYWSCLLVYLAPNFSFLSLLANLLLVHGERYMAVLRPLQPPGSIRLALLLTWAGPLLFASLPALGWNHWTPGANCSSQAIFPAPYLYLEVYGLLLPAVGAAAFLSVRVLATAHRQLQDICRLERAVCRDEPSALARALTWRQARAQAGAMLLFGLCWGPYVATLLLSVLAYEQRPPLGPGTLLSLLSLGSASAAAVPVAMGLGDQRYTAPWRAAAQRCLQGLWGRASRDSPGPSIAYHPSSQSSVDLDLN [GPBAR1] | 5940 ± 84 |  | 
MELRNSTLGSGFILVGILNDSGSPELLYATFTILYMLALTSNGLLLLAITIEARLHMPMYLLLGQLSLMDLLFTSVVTPKALADFLRRENTISFGGCALQMFLALTMGSAEDLLLAFMAYDRYVAICHPLKYMTLMSPRVCWIMVATSWILASLIAIGHTMYTMHLPFCVSWEIRHLLCEIPPLLKLACADTSRYELIIYVTGVTFLLLPISAIVASYTLVLFTVLRMPSNEGRKKALVTCSSHLIVVGMFYGAATFMYVLPSSFHSPKQDNIISVFYTIVTPALNPLIYSLRNKEVMRALRRVLGKYILLAHSTL [OR2AG2] |  | 164 ± 69 | 
